Measurements from patent US20230312718A1 (Regeneron, published 2023).

Biological target: T1, MUC16 on OVCAR-3 cells (human, UniProt Q8WXI7 1-14507)
T1 construct: whole, on cells
Assay: FACS binding to OVCAR-3 cells

binding result: binds
B1: BSMUC16/CD3-001 (bispecific antibody, V domains shown)
VH 1: QVQLVESGGGLVKPGGSLRLSCAASGFTFSNYYMSWVRQAPGKGLEWISYISGRGSTIFYADSVKGRITISRDNAKNSLFLQMNSLRAEDTAVYFCVKDRGGYSPYWGQGTLVTVSS
VH 2: EVQLVESGGGLVQPGRSLRLSCAASGFTFDDYSMHWVRQAPGKGLEWVSGISWNSGSKGYADSVKGRFTISRDNAKNSLYLQMNSLRAEDTALYYCAKYGSGYGKFYHYGLDVWGQGTTVTVSS
VL: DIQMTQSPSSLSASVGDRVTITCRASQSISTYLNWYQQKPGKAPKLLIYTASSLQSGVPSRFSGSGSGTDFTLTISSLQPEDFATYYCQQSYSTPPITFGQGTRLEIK
notes: It was biotinylated in the ELISA and 89Zr-DFO labelled in the PET study; also called REGN4018; ubamatamab
